Earlier results on 1 substance are cited in publication PMC5729051.

The Kd is the free concentration of one partner at which half of the binding sites on the other are occupied at equilibrium, for simple one-to-one binding.

This data set has as its target amyloid-beta oligomer (Homo sapiens) (UniProt P05067).

On to “Cellular Prion Protein (PrPC) (from UniProt P04156)”, for which the Kd is 0.4 nM.
